How the values were obtained:
[1] = tested on: HBV; test: HBV level in HepAD38 cells, immunoblot; assay type: cell-based; conditions: α2M 20 nM, 24 h
[2] = tested on: EV71; test: EV71 infection of RD cells (viral RNA, titer, viral protein, CPE); conditions: α2M 20 nM, added 3 h post infection MOI 10, 6 h
[3] = tested on: DNA and RNA viruses; test: Antiviral effect against DNA and RNA viruses (summary); assay type: cell-based; conditions: dosages within the biosafety range (<1.5 mg/100 ml)
Experimental: Fig. 6 Inhibition of extracellular LRPAP1 reinforces the host cell’s innate immunity against multiple viruses’ infection. a–c RD cells were transfected with scramble siRNA or siLRPAP1 for 24 h. Then the cells were infected with HCoV-OC43 at an MOI of 1 for 72 h or HSV-1 at the indicated MOI for 24 h. Viral RNA level of HCoV-OC43 was analysed by RT-qPCR (a). Viral titer of HCoV-OC43 was measured by TCID50 assay (b). The relative viral DNA level of HSV-1 was analysed by RT-qPCR (c). d Immunoblots of lysates in HepAD38 cells transfected with scramble siRNA or siLRPAP1 for 48 h. e RD cells were transfected with scramble siRNA or siLRPAP1-1/-2 (si-1, si-2) for 24 h. Then the cells were infected with ZIKV at an MOI of 1 for 24 h. Viral RNA level of ZIKV was analysed by RT-qPCR. f, g The inhibitory effect of anti-LRPAP1 for HSV-1 infection. […] Densitometric analysis of VP1 levels in Fig. 6(i) was quantified and normalized with GAPDH using ImageJ (j). Densitometric analysis of HSV Envelope levels in Fig. 6(k) was quantified and normalized with GAPDH using ImageJ (l). m The schematic diagram of virus circumventing type I IFN signaling through LRPAP1.
a, The effect of siLRPAP1 on the infection of HCoV-OC43. […] Viral RNA level of HCoV-OC43 was analysed by RT-qPCR. b, RD cells were transfected with scramble siRNA or siLRPAP1 for 24 h, and cells were then inoculated with HCoV-OC43 at an MOI of 1 for 72 h. […]

[4] = tested on: IFNAR1; test: IFNAR1 protein level, immunoblot, HEK-293T cells; assay type: cell-based, human; conditions: HEK-293T, rLRPAP1 200 nM, α2M 20 nM, 1 h
[5] = tested on: HCoV-OC43; test: HCoV-OC43 infection of RD cells (viral RNA, TCID50, CPE); conditions: α2M 20 nM pre-treatment 1 h, MOI 1, 72 h
[6] = tested on: IFNAR1; test: IFNAR1 protein level, immunoblot / immunofluorescence, RD cells; assay type: cell-based; conditions: EV71 or HSV-1 MOI 10; α2M 20 nM, LF 400 nM
[7] = tested on: HSV-1; test: HSV-1 infection of RD cells (viral DNA, TCID50, viral protein, CPE); conditions: α2M 20 nM, added 3 h post infection MOI 10, 21 h
[8] = tested on: IFNAR1; test: IFNAR1 protein level, HepAD38 cells, immunoblot; assay type: cell-based; conditions: siRNA or overexpression 48 h; LF 400 nM 24 h

B1: alpha-2-macroglobulin (protein, UniProt P01023 24-1474, looked up)
Alpha-2-macroglobulin: SVSGKPQYMVLVPSLLHTETTEKGCVLLSYLNETVTVSASLESVRGNRSLFTDLEAENDVLHCVAFAVPKSSSNEEVMFLTVQVKGPTQEFKKRTTVMVKNEDSLVFVQTDKSIYKPGQTVKFRVVSMDENFHPLNELIPLVYIQDPKGNRIAQWQSFQLEGGLKQFSFPLSSEPFQGSYKVVVQKKSGGRTEHPFTVEEFVLPKFEVQVTVPKIITILEEEMNVSVCGLYTYGKPVPGHVTVSICRKYSDASDCHGEDSQAFCEKFSGQLNSHGCFYQQVKTKVFQLKRKEYEMKLHTEAQIQEEGTVVELTGRQSSEITRTITKLSFVKVDSHFRQGIPFFGQVRLVDGKGVPIPNKVIFIRGNEANYYSNATTDEHGLVQFSINTTNVMGTSLTVRVNYKDRSPCYGYQWVSEEHEEAHHTAYLVFSPSKSFVHLEPMSHELPCGHTQTVQAHYILNGGTLLGLKKLSFYYLIMAKGGIVRTGTHGLLVKQEDMKGHFSISIPVKSDIAPVARLLIYAVLPTGDVIGDSAKYDVENCLANKVDLSFSPSQSLPASHAHLRVTAAPQSVCALRAVDQSVLLMKPDAELSASSVYNLLPEKDLTGFPGPLNDQDNEDCINRHNVYINGITYTPVSSTNEKDMYSFLEDMGLKAFTNSKIRKPKMCPQLQQYEMHGPEGLRVGFYESDVMGRGHARLVHVEEPHTETVRKYFPETWIWDLVVVNSAGVAEVGVTVPDTITEWKAGAFCLSEDAGLGISSTASLRAFQPFFVELTMPYSVIRGEAFTLKATVLNYLPKCIRVSVQLEASPAFLAVPVEKEQAPHCICANGRQTVSWAVTPKSLGNVNFTVSAEALESQELCGTEVPSVPEHGRKDTVIKPLLVEPEGLEKETTFNSLLCPSGGEVSEELSLKLPPNVVEESARASVSVLGDILGSAMQNTQNLLQMPYGCGEQNMVLFAPNIYVLDYLNETQQLTPEIKSKAIGYLNTGYQRQLNYKHYDGSYSTFGERYGRNQGNTWLTAFVLKTFAQARAYIFIDEAHITQALIWLSQRQKDNGCFRSSGSLLNNAIKGGVEDEVTLSAYITIALLEIPLTVTHPVVRNALFCLESAWKTAQEGDHGSHVYTKALLAYAFALAGNQDKRKEVLKSLNEEAVKKDNSVHWERPQKPKAPVGHFYEPQAPSAEVEMTSYVLLAYLTAQPAPTSEDLTSATNIVKWITKQQNAQGGFSSTQDTVVALHALSKYGAATFTRTGKAAQVTIQSSGTFSSKFQVDNNNRLLLQQVSLPELPGEYSMKVTGEGCVYLQTSLKYNILPEKEEFPFALGVQTLPQTCDEPKAHTSFQISLSVSYTGSRSASNMAIVDVKMVSGFIPLKPTVKMLERSNHVSRTEVSSNHVLIYLDKVSNQTLSLFFTVLQDVPVRDLKPAIVKVYDYYETDEFAIAEYNAPCSKDLGNA
- HBV propagation (HBc) [1]: significantly inhibited both DNA and RNA virus propagation
- EV71 propagation (VP1) [2]: significantly inhibited both DNA and RNA virus propagation
- antiviral effect [3]: promising antiviral effects
- IFNAR1 level in cells treated with rLRPAP1 [4]: markedly upregulated IFNAR1
- HCoV-OC43 propagation [5]: significantly inhibited both DNA and RNA virus propagation
- IFNAR1 level under viral infections [6]: markedly upregulated IFNAR1
- HSV-1 propagation (Envelope) [7]: significantly inhibited both DNA and RNA virus propagation

B2: lactoferrin (protein, UniProt P02788 20-710, looked up)
Lactotransferrin: GRRRSVQWCAVSQPEATKCFQWQRNMRKVRGPPVSCIKRDSPIQCIQAIAENRADAVTLDGGFIYEAGLAPYKLRPVAAEVYGTERQPRTHYYAVAVVKKGGSFQLNELQGLKSCHTGLRRTAGWNVPIGTLRPFLNWTGPPEPIEAAVARFFSASCVPGADKGQFPNLCRLCAGTGENKCAFSSQEPYFSYSGAFKCLRDGAGDVAFIRESTVFEDLSDEAERDEYELLCPDNTRKPVDKFKDCHLARVPSHAVVARSVNGKEDAIWNLLRQAQEKFGKDKSPKFQLFGSPSGQKDLLFKDSAIGFSRVPPRIDSGLYLGSGYFTAIQNLRKSEEEVAARRARVVWCAVGEQELRKCNQWSGLSEGSVTCSSASTTEDCIALVLKGEADAMSLDGGYVYTAGKCGLVPVLAENYKSQQSSDPDPNCVDRPVEGYLAVAVVRRSDTSLTWNSVKGKKSCHTAVDRTAGWNIPMGLLFNQTGSCKFDEYFSQSCAPGSDPRSNLCALCIGDEQGENKCVPNSNERYYGYTGAFRCLAENAGDVAFVKDVTVLQNTDGNNNEAWAKDLKLADFALLCLDGKRKPVTEARSCHLAMAPNHAVVSRMDKVERLKQVLLHQQAKFGRNGSDCPDKFCLFQSETKNLLFNDNTECLARLHGKTTYEKYLGPQYVAGITNLKKCSTSPLLEACEFLRK
- IFNAR1 expression in HepAD38 cells [8]: but not LF
- IFNAR1 level under viral infections [6]: but not LF

Source: paper PMC10518340, “Secreted LRPAP1 binds and triggers IFNAR1 degradation to facilitate virus evasion from cellular innate immunity” (Signal Transduction and Targeted Therapy, 2023)
